Measured values published in publication PMC7144582.

B1: CD2AP SH3-C, Q9Y5K6 (protein)
chain: KAKEYCRTLFAYEGTNEDELTFKEGEIIHLISKETGEAGWWRGELNGKEGVFPDNFAVQINE
B2: CD2AP SH3-B, Q9Y5K6 (protein)
chain: TKKRQCKVLFEYIPQNEDELELKVGDIIDINEEVEEGWWSGTLNNKLGLFPSNFVKELEV

Legend:
[1] = molecular target: CHIKV nsP3 hypervariable domain (HVD), aa 325-523, with C-terminal Twin-Strep-tag (chikungunya virus (CHIKV) strain 181-25); assay: NMR titration
[2] = molecular target: nsP3 Site 1 (Chikungunya virus), Q8JUX6; assay: NMR

Molecule	apparent KD, Site 2 [1]	KD, Site 1 [1]	Kd [2]
CD2AP SH3-A domain (domain or fragment)	137 µM	–	–
CD2AP SH3-B domain (domain or fragment)	75.7 µM	4.5 µM	–
CD2AP SH3-C domain (domain or fragment)	154 µM	–	–
B1	–	–	51.7 µM
B2	–	–	4.5 µM
